Source: paper PMC11187062, “Structure of human DPPA3 bound to the UHRF1 PHD finger reveals its functional and structural differences from mouse DPPA3” (Communications Biology, 2024)
Numbering of substitutions follows the chain as printed. Names and notes keep the numbering of the source. Values joined by “and” are separate entries in the source; they are usually repeats but may differ in a detail not shown here. Equal values may be shown once.

B1: K95P substituted hDPPA3_(81-118) (peptide, UniProt Q6W0C5 81-118, looked up)
chain: SRRGVRTLLSVQREPMARLRYMLLGGVRTHERRPTNKE
notes: also called K95P mutant of hDPPA3; source: bought: Toray Research Center (Tokyo, Japan)
B2: hDPPA3 residues 81-118, M96A/L99A (peptide, UniProt Q6W0C5 81-118, looked up)
chain: B1 chain with P15K, M16A, L19A
notes: source: E. coli BL21 (DE3), purified (Ni Sepharose, His-Ub removed by YUH1, HiTrap SP, Superdex 75)
B3: hDPPA3 residues 81-118, R98A/M102A (peptide, UniProt Q6W0C5 81-118, looked up)
chain: B1 chain with P15K, R18A, M22A
notes: as for B2
B4: human DPPA3, residues 81–118 (recombinant) (domain or fragment)
chain: B1 chain with P15K
notes: Used for SAXS, NMR, CD, ITC and ubiquitination experiments; also called hDPPA3; source: E. coli BL21 (DE3), His-Ub fusion, purified (Ni Sepharose, YUH1 cleavage, HiTrap SP, Superdex 75)
B5: hDPPA3_(81-118) R86A (domain or fragment, human, UniProt Q6W0C5 81-118, looked up)
chain: B1 chain with R6A, P15K
notes: source: E. coli BL21 (DE3), His-Ub fusion, purified by the same protocol as the wild type
B6: hDPPA3_(81-118) R86A/T87A (domain or fragment, human, UniProt Q6W0C5 81-118, looked up)
chain: B1 chain with R6A, T7A, P15K
notes: as for B5
B7: hDPPA3_(81-118) R93P/A97P (domain or fragment, human, UniProt Q6W0C5 81-118, looked up)
chain: B1 chain with R13P, P15K, A17P
notes: as for B5
B8: hDPPA3_(81-118) T87A (domain or fragment, human, UniProt Q6W0C5 81-118, looked up)
chain: B1 chain with T7A, P15K
notes: as for B5
B9: human DPPA3, residues 81-118 (domain or fragment)
chain: B1 chain with P15K
notes: also called hDPPA3 WT; source: E. coli BL21 (DE3), His-Ub fusion, purified (Ni Sepharose, YUH1 cleavage, HiTrap SP, Superdex 75)
B10: human DPPA3, residues 81-118, L88A/V91A (domain or fragment, UniProt Q6W0C5 81-118, looked up)
chain: B1 chain with L8A, V11A, P15K
notes: DPPA3, human, with L88A and V91A; named only in the sheet; also called hDPPA3_mutant2_L88AV91A
B11: human DPPA3, residues 81-118, M96A/L99A (domain or fragment, UniProt Q6W0C5 81-118, looked up)
chain: B1 chain with P15K, M16A, L19A
notes: also called hDPPA3_mutant3_M96AL99A; source: E. coli BL21 (DE3), His-Ub fusion, purified by the same protocol as the wild type
B12: human DPPA3, residues 81-118, R93P/A97P (domain or fragment, UniProt Q6W0C5 81-118, looked up)
chain: B1 chain with R13P, P15K, A17P
notes: also called hDPPA3_mutant4_R93PA97P; source: E. coli BL21 (DE3), His-Ub fusion, purified by the same protocol as the wild type
B13: human DPPA3, residues 81-118, R98A/M102A (domain or fragment, UniProt Q6W0C5 81-118, looked up)
chain: B1 chain with P15K, R18A, M22A
notes: also called hDPPA3_mutant1_R98AM102A; source: E. coli BL21 (DE3), His-Ub fusion, purified by the same protocol as the wild type

What was measured:
Details in all cases: both partners purified
[1] = target: T1, human UHRF1 PHD finger (residues 299-366) (human, UniProt Q96T88 299-366); assay: ITC; Microcal PEAQ-ITC, 293 K, 10 mM HEPES pH 7.5, 150 mM NaCl, 0.25 mM TCEP; one-site model; n = 3
T1 construct: UHRF1 (ubiquitin-like PHD and RING finger domain-containing protein 1), human, PHD finger, residues 299-366; also called hPHD; hUHRF1 PHD finger; source: E. coli, expressed as a GST-fusion protein, purified (glutathione Sepharose 4B, HiTrap Q, Superdex 75)
T1 sequence (looked up): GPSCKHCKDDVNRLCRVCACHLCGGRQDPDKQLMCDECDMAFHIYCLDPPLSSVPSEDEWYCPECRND

[2] = target: T1, human UHRF1 PHD finger (residues …); assay: as above; remark: listed apart in the source
[3] = target: T2, human UHRF1 PHD finger, residues 299–366 (human, UniProt Q96T88 299-366); assay: SEC-SAXS; 12 mg/ml hPHD:hDPPA3_(81-118) complex on Superdex 200 Increase 5/150 GL, 20 mM Tris-HCl pH 7.5, 150 mM NaCl, 2 mM DTT, 10 µM zinc acetate, 5% glycerol, 20 °C
T2 construct: UHRF1 (ubiquitin-like PHD and RING finger domain-containing protein 1), human, PHD finger, residues 299-366; 15N- or 13C,15N-labelled for NMR; also called hPHD; hUHRF1 PHD finger; source: E. coli, expressed as a GST-fusion protein, purified (glutathione Sepharose 4B, HiTrap Q, Superdex 75)
T2 sequence (looked up): T1 sequence (looked up)

[4] = target: T2, human UHRF1 PHD finger, residues 299–366; assay: ITC; Microcal PEAQ-ITC, 293 K, 10 mM HEPES pH 7.5, 150 mM NaCl, 0.25 mM TCEP; one-site model; at least three independent titrations
hPHD M332A = target: T3, hPHD M332A (human, UniProt Q96T88 299-366, M332A); assay: as above
T3 construct: UHRF1, human, PHD finger, residues 299-366; also called M332A hPHD mutation; source: E. coli, site-directed mutant of hPHD; purification of the hPHD mutants not described separately
T3 sequence (looked up): T1 sequence (looked up) with M34A

[5] = target: T4, human UHRF1 PHD finger, residues 299-366 (human, UniProt Q96T88 299-366); assay: ITC; Microcal PEAQ-ITC, 293 K, 10 mM HEPES pH 7.5, 150 mM NaCl, 0.25 mM TCEP, one-site model; which partner was titrated is not stated; single titrations and their means
T4 construct: UHRF1 (ubiquitin-like PHD and RING finger domain-containing protein 1), human, PHD finger, residues 299-366; also called hPHD; hUHRF1 PHD finger; source: E. coli, expressed as a GST-fusion protein, purified (glutathione Sepharose 4B, HiTrap Q, Superdex 75)
T4 sequence (looked up): T1 sequence (looked up)

[6] = target: T5, human UHRF1 PHD finger, residues 299-366, M332A (human, UniProt Q96T88 299-366, M332A); assay: as above
T5 construct: UHRF1, human, PHD finger, residues 299-366, with M332A; also called hPHD M332A; source: E. coli, expressed as a GST-fusion protein, purified
T5 sequence (looked up): T1 sequence (looked up) with M34A

[7] = target: T4, human UHRF1 PHD finger, residues 299-366; assay: as above; remark: listed apart in the source

Binder | Kd [4] [nM] | Kd [7] | also measured
B1 |  |  | Kd [1]: 1260 nM
B2 |  |  | Kd [2]: 550 nM
B3 |  |  | Kd [2]: 352 nM
B4 | 868 |  | stoichiometry N [3]: 1; Kd (hPHD M332A): 8070 nM
B5 | 20000 |  | 
B6 | > 85000 |  | 
B7 | 9390 |  | 
B8 | 16500 |  | 
B9 |  |  | Kd [5]: 918 nM and 804 nM and 921 nM and 831 nM; Kd [6]: 9490 nM and 6150 nM and 8570 nM
B10 |  | 2890 nM and 1670 nM and 1870 nM | 
B11 |  | 355 nM and 347 nM | 
B12 |  | 11200 nM and 9620 nM and 7360 nM | 
B13 |  | 639 nM and 460 nM and 552 nM | 
